Data taken from paper PMC5670123, “The structural basis of proton driven zinc transport by ZntB” (Nature Communications, 2017).

Biological target: the molecule itself
Assay: cryo-EM structure; single-particle cryo-EM of DDM-solubilized, purified EcZntB pre-treated with EDTA (apo), ~10 mg/ml, 50 mM Tris/HCl pH 8.0, 250 mM NaCl, 0.03% DDM; overall resolution 4.2 Å

B1: ZntB from Escherichia coli, full-length (natural protein, UniProt P64423 1-327, looked up)
chain: MEAIKGSDVNVPDAVFAWMLDGRGGVKPLENTDVIDEAHPCWLHLNYVHHDSAQWLATTPLLPNNVRDALAGESTRPRVSRLGEGTLITLRCINGSTDERPDQLVAMRVYMDGRLIVSTRQRKVLALDDVVSDLEEGTGPTDCGGWLVDVCDALTDHSSEFIEQLHDKIIDLEDNLLDQQIPPRGFLALLRKQLIVMRRYMAPQRDVYARLASERLPWMSDDQRRRMQDIADRLGRGLDEIDACIARTGVMADEIAQVMQENLARRTYTMSLMAMVFLPSTFLTGLFGVNLGGIPGGGWQFGFSIFCILLVVLIGGVALWLHRSKWL
notes: Zinc transporter ZntB of Escherichia coli (CorA metal ion transporter family), full-length; Homopentamer in DDM micelles, apo (pre-treated with EDTA); TEV protease (ProTev Plus) is described only for the proteoliposome transport assay, not for the cryo-EM sample; also called EcZntB; source: membrane vesicles solubilized in DDM, purified (Ni2+-sepharose, EDTA treatment, Superdex 200 SEC)
Q: For B1, which “stoichiometry N” value is on record?
A: The value was 5.
